Tests used:
[1] = biological target: T1, CD22 (UniProt P20273 20-847, limits assumed); assay: cell-based or functional assay
[2] = biological target: T1, CD22; assay: cell-based or functional assay; remark: listed apart in the source
[3] = biological target: T2, anti-GCN4 (52SR4 scFv) sCAR with IgG4m hinge; assay: flow cytometry competition on CAR-T cells with the GCN4 CAR (SEQ ID NO. 74): 1 nM labelled GCN4 peptide (GCN4-AF488) as competitor, unlabelled peptide titrated, MFI of the labelled peptide read
T2 construct: disulfide dimer by western blot; also called short-dimeric sCAR; IgG4m sCAR
T2 chain: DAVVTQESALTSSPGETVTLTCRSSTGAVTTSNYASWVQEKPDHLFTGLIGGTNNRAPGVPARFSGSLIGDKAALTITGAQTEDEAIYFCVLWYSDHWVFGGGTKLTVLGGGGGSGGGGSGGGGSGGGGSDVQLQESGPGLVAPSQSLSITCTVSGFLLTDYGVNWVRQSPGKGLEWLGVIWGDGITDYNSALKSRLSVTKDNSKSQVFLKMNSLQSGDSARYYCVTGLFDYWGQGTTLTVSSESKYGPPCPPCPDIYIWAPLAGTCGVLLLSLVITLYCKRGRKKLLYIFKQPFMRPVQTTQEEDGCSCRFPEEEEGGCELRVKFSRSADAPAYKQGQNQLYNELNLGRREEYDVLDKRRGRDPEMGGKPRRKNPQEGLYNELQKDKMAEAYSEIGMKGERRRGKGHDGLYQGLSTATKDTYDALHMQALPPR
Text: Un-labelled peptide binding efficiency was indirectly shown by measuring the mean fluorescence intensity (MFI) staining with the labelled peptide.
Cells were then washed twice with cold PBS to remove the free labelled peptide before being analyzed using the BD Accuri flow cytometer.

[4] = biological target: T3, anti-GCN4 (52SR4 scFv) sCAR with CD8 hinge; assay: flow cytometry on CD8 sCAR-T cells, switch 30 min at 4 C, detected with PE-conjugated goat anti-human kappa chain antibody, MFI
T3 construct: 273 is the protein without leader; also called sCAR (long); CD8 sCAR
Text: Cells were washed two times and analyzed using the Accuri flow cytometer (BD).

[5] = biological target: T4, CLL1 (UniProt Q5QGZ9 1-265, limits assumed); assay: cell-based or functional assay
T4 sequence (looked up): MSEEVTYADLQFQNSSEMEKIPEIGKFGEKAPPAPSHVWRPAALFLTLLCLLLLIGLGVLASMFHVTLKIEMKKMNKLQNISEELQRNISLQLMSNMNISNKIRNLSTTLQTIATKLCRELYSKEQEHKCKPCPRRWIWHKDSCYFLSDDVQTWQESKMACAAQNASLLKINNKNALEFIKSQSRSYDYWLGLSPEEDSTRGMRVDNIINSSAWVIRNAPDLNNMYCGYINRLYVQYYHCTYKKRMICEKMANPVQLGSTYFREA

[6] = biological target: T4, CLL1; assay: cell-based or functional assay; remark: listed apart in the source

B1: anti-CD22 (clone hLL2) Fab LCCT switch (Fab)
light: DIQLTQSPSSLSASVGDRVTMSCKSSQSVLYSANHKNYLAWYQQKPGKAPKLLIYWASTRESGVPSRFSGSGSGTDFTFTISSLQPEDIATYYCHQYLSSWTFGGGTKLEIKRTVAAPSVFIFPPSDEQLKSGTASVVCLLNNFYPREAKVQWKVDNALQSGNSQESVTEQDSKDSTYSLSSTLTLSKADYEKHKVYACEVTHQGLSSPVTKSFNRGECGGGGSNYHLENEVARLKKL
heavy: QVQLVQSGAEVKKPGSSVKVSCKASGYTFTSYWLHWVRQAPGQGLEWIGYINPRNDYTEYNQNFKDKATITADESTNTAYMELSSLRSEDTAFYFCARRDITTFYWGQGTTVTVSSARTKGPSVFPLAPSSKSTSGGTAALGCLVKDYFPEPVTVSWNSGALTSGVHTFPAVLQSSGLYSLSSVVTVPSSSLGTQTYICNVNHKPSNTKVDKKVEPKSC
- EC50 of cytotoxicity [1]: 132 pM
- cytotoxicity at 0.01 pM [2]: -2.13
- cytotoxicity at 0.1 pM [2]: -0.84
- cytotoxicity at 1 pM [2]: -0.01
- cytotoxicity at 10 pM [2]: 4.8
- cytotoxicity at 100 pM [2]: 23.8
- cytotoxicity at 1000 pM [2]: 49.6
- cytotoxicity at 10000 pM [2]: 56.5

Binder: AAALENEVARLKKL [Peptide 4: AAALENEVARLKKL]
- binding result [3]: no binding (tested: 10^3 nM)

Binder: NYHLENEVARLKKA [Peptide 6: NYHLENEVARLKKA]
- binding result [3]: binds

Binder: NYHLENEVARLAAA [Peptide 8: NYHLENEVARLAAA]
- binding result [3]: binds

Binder: AAAAENEVARLKKL [Peptide 5: AAAAENEVARLKKL]
- binding result [3]: no binding (tested: 10^3 nM)

Binder: NYHLENEVARLKAA [Peptide 7: NYHLENEVARLKAA]
- binding result [3]: binds

B2: anti-CD19 (FMC63) Fab CTBV switch (Fab)
light: DIQMTQTTSSLSASLGDRVTISCRASQDISKYLNWYQQKPDGTVKLLIYHTSRLHSGVPSRFSGSGSGTDYSLTISNLEQEDIATYFCQQGNTLPYTFGGGTKLEIKRTVAAPSVFIFPPSDEQLKSGTASVVCLLNNFYPREAKVQWKVDNALQSGNSQESVTEQDSKDSTYSLSSTLTLSKADYEKHKVYACEVTHQGLSSPVTKSFNRGECGGGGSNYHLENEVARLKKL
heavy: EVKLQESGPGLVAPSQSLSVTCTVSGVSLPDYGVSWIRQPPRKGLEWLGVIWGSETTYYNSALKSRLTIIKDNSKSQVFLKMNSLQTDDTAIYYCAKHYYYGGSYAMDYWGQGTSVTVSSASTKGPSVFPLAPSSKSTSGGTAALGCLVKDYFPEPVTVSWNSGALTSGVHTFPAVLQSSGLYSLSSVVTVPSSSLGTQTYICNVNHKPSNTKVDKKVEPKSCGGGGSNYHLENEVARLKKL
notes: the text prints 97 & 34; also called BV CT
- EC50 [4]: 360 pM

B3: anti-CD22 (clone hLL2) Fab HCCT switch (Fab, V domains shown)
VH: QVQLVQSGAEVKKPGSSVKVSCKASGYTFTSYWLHWVRQAPGQGLEWIGYINPRNDYTEYNQNFKDKATITADESTNTAYMELSSLRSEDTAFYFCARRDITTFYWGQGTTVTVSS
VL: DIQLTQSPSSLSASVGDRVTMSCKSSQSVLYSANHKNYLAWYQQKPGKAPKLLIYWASTRESGVPSRFSGSGSGTDFTFTISSLQPEDIATYYCHQYLSSWTFGGGTKLEIKR
- EC50 of cytotoxicity [1]: 1340 pM
- cytotoxicity at 0.01 pM [2]: 1.3
- cytotoxicity at 0.1 pM [2]: 6.05
- cytotoxicity at 1 pM [2]: 7.67
- cytotoxicity at 10 pM [2]: 8.27
- cytotoxicity at 100 pM [2]: 7.35
- cytotoxicity at 1000 pM [2]: 25
- cytotoxicity at 10000 pM [2]: 45.1

B4: anti-CD22 (clone hLL2) Fab LCNT switch (Fab, V domains shown)
VH: QVQLVQSGAEVKKPGSSVKVSCKASGYTFTSYWLHWVRQAPGQGLEWIGYINPRNDYTEYNQNFKDKATITADESTNTAYMELSSLRSEDTAFYFCARRDITTFYWGQGTTVTVSS
VL: DIQLTQSPSSLSASVGDRVTMSCKSSQSVLYSANHKNYLAWYQQKPGKAPKLLIYWASTRESGVPSRFSGSGSGTDFTFTISSLQPEDIATYYCHQYLSSWTFGGGTKLEIKR
- EC50 of cytotoxicity [1]: 6560 pM

B5: anti-CLL1 (1075.7) Fab switch D (light chain C terminus) (Fab)
light: ENVLTQSPAIMSASPGEKVTMTCRASSNVISSYVHWYQQRSGASPKLWIYSTSNLASGVPARFSGSGSGTSYSLTISSVEAEDAATYYCQQYSGYPLTFGAGTKLELKRAAAAPSVFIFPPSDEQLKSGTASVVCLLNNFYPREAKVQWKVDNALQSGNSQESVTEQDSKDSTYSLSSTLTLSKADYEKHKVYACEVTHQGLSSPVTKSFNRGECGGGGSNYHLENEVARLKKL
heavy: DIQLQESGPGLVKPSQSLSLTCSVTGYSITSAYYWNWIRQFPGNKLEWMGYISYDGRNNYNPSLKNRISITRDTSKNQFFLKLNSVTTEDTATYYCAKEGDYDVGNYYAMDYWGQGTSVTVSSARTKGPSVFPLAPSSKSTSGGTAALGCLVKDYFPEPVTVSWNSGALTSGVHTFPAVLQSSGLYSLSSVVTVPSSSLGTQTYICNVNHKPSNTKVDKKVEPKSC
- EC50 of cytotoxicity, short hinge CAR [5]: 5.1 pM
- EC50 of cytotoxicity, long hinge CAR [6]: 2.2 pM

B6: anti-CLL1 (1075.7) Fab bivalent switch C + D (Fab)
light: ENVLTQSPAIMSASPGEKVTMTCRASSNVISSYVHWYQQRSGASPKLWIYSTSNLASGVPARFSGSGSGTSYSLTISSVEAEDAATYYCQQYSGYPLTFGAGTKLELKRAAAAPSVFIFPPSDEQLKSGTASVVCLLNNFYPREAKVQWKVDNALQSGNSQESVTEQDSKDSTYSLSSTLTLSKADYEKHKVYACEVTHQGLSSPVTKSFNRGECGGGGSNYHLENEVARLKKL
heavy: DIQLQESGPGLVKPSQSLSLTCSVTGYSITSAYYWNWIRQFPGNKLEWMGYISYDGRNNYNPSLKNRISITRDTSKNQFFLKLNSVTTEDTATYYCAKEGDYDVGNYYAMDYWGQGTSVTVSSARTKGPSVFPLAPSSKSTSGGTAALGCLVKDYFPEPVTVSWNSGALTSGVHTFPAVLQSSGLYSLSSVVTVPSSSLGTQTYICNVNHKPSNTKVDKKVEPKSCGGGGSNYHLENEVARLKKL
- EC50 of cytotoxicity, short hinge CAR [5]: 1.2 pM
- EC50 of cytotoxicity, long hinge CAR [6]: 3.1 pM

B7: anti-CD19 (FMC63) Fab with no grafted peptide (Fab, V domains shown)
VH: EVKLQESGPGLVAPSQSLSVTCTVSGVSLPDYGVSWIRQPPRKGLEWLGVIWGSETTYYNSALKSRLTIIKDNSKSQVFLKMNSLQTDDTAIYYCAKHYYYGGSYAMDYWGQGTSVTVSS
VL: DIQMTQTTSSLSASLGDRVTISCRASQDISKYLNWYQQKPDGTVKLLIYHTSRLHSGVPSRFSGSGSGTDYSLTISNLEQEDIATYFCQQGNTLPYTFGGGTKLEIKR
notes: also called WT; wild type anti-CD19 Fab
- binding result [4]: no binding (tested: 10^2 nM)

B8: anti-CLL1 (1075.7) Fab switch C (heavy chain C terminus) (Fab, V domains shown)
VH: DIQLQESGPGLVKPSQSLSLTCSVTGYSITSAYYWNWIRQFPGNKLEWMGYISYDGRNNYNPSLKNRISITRDTSKNQFFLKLNSVTTEDTATYYCAKEGDYDVGNYYAMDYWGQGTSVTVSS
VL: ENVLTQSPAIMSASPGEKVTMTCRASSNVISSYVHWYQQRSGASPKLWIYSTSNLASGVPARFSGSGSGTSYSLTISSVEAEDAATYYCQQYSGYPLTFGAGTKLELKR
- EC50 of cytotoxicity, short hinge CAR [5]: 4.9 pM
- EC50 of cytotoxicity, long hinge CAR [6]: 3.3 pM

B9: anti-CLL1 (1075.7) Fab bivalent switch A + B (Fab, V domains shown)
VH: DIQLQESGPGLVKPSQSLSLTCSVTGYSITSAYYWNWIRQFPGNKLEWMGYISYDGRNNYNPSLKNRISITRDTSKNQFFLKLNSVTTEDTATYYCAKEGDYDVGNYYAMDYWGQGTSVTVSS
VL: ENVLTQSPAIMSASPGEKVTMTCRASSNVISSYVHWYQQRSGASPKLWIYSTSNLASGVPARFSGSGSGTSYSLTISSVEAEDAATYYCQQYSGYPLTFGAGTKLELKR
- EC50 of cytotoxicity, short hinge CAR [5]: 0.5 pM
- EC50 of cytotoxicity, long hinge CAR [6]: 0.6 pM

B10: anti-CLL1 (1075.7) Fab switch B (HCNT3) (Fab, V domains shown)
VH: DIQLQESGPGLVKPSQSLSLTCSVTGYSITSAYYWNWIRQFPGNKLEWMGYISYDGRNNYNPSLKNRISITRDTSKNQFFLKLNSVTTEDTATYYCAKEGDYDVGNYYAMDYWGQGTSVTVSS
VL: ENVLTQSPAIMSASPGEKVTMTCRASSNVISSYVHWYQQRSGASPKLWIYSTSNLASGVPARFSGSGSGTSYSLTISSVEAEDAATYYCQQYSGYPLTFGAGTKLELKR
- EC50 of cytotoxicity, short hinge CAR [5]: 0.6 pM
- EC50 of cytotoxicity, long hinge CAR [6]: 1.3 pM

B11: anti-CLL1 (1075.7) Fab switch A (LCNT1) (Fab, V domains shown)
VH: DIQLQESGPGLVKPSQSLSLTCSVTGYSITSAYYWNWIRQFPGNKLEWMGYISYDGRNNYNPSLKNRISITRDTSKNQFFLKLNSVTTEDTATYYCAKEGDYDVGNYYAMDYWGQGTSVTVSS
VL: ENVLTQSPAIMSASPGEKVTMTCRASSNVISSYVHWYQQRSGASPKLWIYSTSNLASGVPARFSGSGSGTSYSLTISSVEAEDAATYYCQQYSGYPLTFGAGTKLELKR
- EC50 of cytotoxicity, short hinge CAR [5]: 1.5 pM
- EC50 of cytotoxicity, long hinge CAR [6]: 4.1 pM
